Measured values: patent US20030118612A1 (MAXYGEN, published 2003)
Changes are numbered by the printed parent chain. Names and notes keep the numbering of the source. Each block holds one binder with its values, some of them ahead of it.

What was measured:
Experiment in all cases: cell-based or functional assay
human G-CSF receptor [1] = target: T1, human G-CSF receptor (human, UniProt Q99062 25-836)
T1 sequence (looked up): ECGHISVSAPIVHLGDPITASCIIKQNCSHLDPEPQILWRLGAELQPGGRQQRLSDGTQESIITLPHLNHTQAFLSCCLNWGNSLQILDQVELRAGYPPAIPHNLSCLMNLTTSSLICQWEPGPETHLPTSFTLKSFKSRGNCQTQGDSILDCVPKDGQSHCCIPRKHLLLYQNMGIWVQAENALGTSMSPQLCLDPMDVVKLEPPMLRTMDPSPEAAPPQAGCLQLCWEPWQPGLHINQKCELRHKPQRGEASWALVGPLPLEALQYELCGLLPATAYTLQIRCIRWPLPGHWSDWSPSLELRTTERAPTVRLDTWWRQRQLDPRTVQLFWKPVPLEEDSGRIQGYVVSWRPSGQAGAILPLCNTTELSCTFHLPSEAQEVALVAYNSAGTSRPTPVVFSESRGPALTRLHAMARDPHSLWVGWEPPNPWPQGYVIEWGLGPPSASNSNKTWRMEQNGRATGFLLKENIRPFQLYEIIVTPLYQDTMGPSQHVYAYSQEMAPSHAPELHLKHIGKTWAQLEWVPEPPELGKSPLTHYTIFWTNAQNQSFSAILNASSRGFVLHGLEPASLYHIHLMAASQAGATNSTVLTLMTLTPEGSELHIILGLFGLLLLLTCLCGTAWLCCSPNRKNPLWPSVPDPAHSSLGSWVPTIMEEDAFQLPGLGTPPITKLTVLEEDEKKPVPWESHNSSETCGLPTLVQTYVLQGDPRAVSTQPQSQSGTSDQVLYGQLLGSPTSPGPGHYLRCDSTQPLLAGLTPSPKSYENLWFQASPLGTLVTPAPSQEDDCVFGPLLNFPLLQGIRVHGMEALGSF

human G-CSF receptor [2] = target: T1, human G-CSF receptor; remark: listed apart in the source
human G-CSF receptor [3] = target: T1, human G-CSF receptor; remark: listed apart in the source

EC50 (human G-CSF receptor [1]): 30 pM
B1: non-conjugated hG-CSF (Neupogen®) (ligand)
chain: MTPLGPASSLPQSFLLKCLEQVRKIQGDGAALQEKLCATYKLCHPEELVLLGHSLGIPWAPLSSCPSQALQLAGCLSQLHSGLFLYQGLLQALEGISPELGPTLDTLQLDVADFATTIWQQMEELGMAPALQPTQGAMPAFASAFQRRAGGVLVASHLQSFLEVSYRVLRHLAQP

EC50 (% of hG-CSF) conjugated to SPA-PEG 12000 (human G-CSF receptor [2]): 10 % of hG-CSF
B2: G-CSF variant K16/34/40R conjugated to SPA-PEG 12000 (ligand)
chain: TPLGPASSLPQSFLLRCLEQVRKIQGDGAALQERLCATYRLCHPEELVLLGHSLGIPWAPLSSCPSQALQLAGCLSQLHSGLFLYQGLLQALEGISPELGPTLDTLQLDVADFATTIWQQMEELGMAPALQPTQGAMPAFASAFQRRAGGVLVASHLQSFLEVSYRVLRHLAQP
modifications: conjugated to SPA-PEG 12000

EC50 (% of hG-CSF) conjugated to SPA-PEG 12000 (human G-CSF receptor [2]): 1 % of hG-CSF
B3: G-CSF variant K16/34/40R Q90K T105K conjugated to SPA-PEG 12000 (ligand)
chain: B2 chain with Q90K, T105K
modifications: conjugated to SPA-PEG 12000

EC50(% of hG-CSF) conjugated to SPA-PEG 20000 (human G-CSF receptor [2]): < 1 % of hG-CSF
B4: G-CSF variant K16/34/40R Q90K T105K S159K conjugated to SPA-PEG 20000 (ligand)
chain: B2 chain with Q90K, T105K, S159K
modifications: conjugated to SPA-PEG 20000

EC50 (% of hG-CSF) non-conjugated (human G-CSF receptor [3]): 20 % of hG-CSF
B5: G-CSF variant K16/34/40R Q70K Q90K Q120K, non-conjugated (ligand)
chain: B2 chain with Q70K, Q90K, Q120K

EC50(% of hG-CSF) conjugated to SPA-PEG 20000 (human G-CSF receptor [2]): < 1 % of hG-CSF
B6: G-CSF variant K16/34/40R Q90K T105K conjugated to SPA-PEG 20000 (ligand)
chain: B2 chain with Q90K, T105K
modifications: conjugated to SPA-PEG 20000

EC50(% of hG-CSF) conjugated to SPA-PEG 20000 (human G-CSF receptor [2]): 5 % of hG-CSF
B7: G-CSF variant K16/34/40R T105K S159K conjugated to SPA-PEG 20000 (ligand)
chain: B2 chain with T105K, S159K
modifications: conjugated to SPA-PEG 20000

EC50 (% of hG-CSF) conjugated to SPA-PEG 12000 (human G-CSF receptor [2]): 1 % of hG-CSF
B8: G-CSF variant K16/34/40R Q90K T105K S159K conjugated to SPA-PEG 12000 (ligand)
chain: B2 chain with Q90K, T105K, S159K
modifications: conjugated to SPA-PEG 12000

EC50 (% of hG-CSF) conjugated to SPA-PEG 12000 (human G-CSF receptor [2]): 8 % of hG-CSF
B9: G-CSF variant K16/34/40R Q70K Q90K conjugated to SPA-PEG 12000 (ligand)
chain: B2 chain with Q70K, Q90K
modifications: conjugated to SPA-PEG 12000

EC50(% of hG-CSF) conjugated to SPA-PEG 20000 (human G-CSF receptor [2]): 7 % of hG-CSF
B10: G-CSF variant K16/34/40R Q90K conjugated to SPA-PEG 20000 (ligand)
chain: B2 chain with Q90K
modifications: conjugated to SPA-PEG 20000

EC50(% of hG-CSF) conjugated to SPA-PEG 20000 (human G-CSF receptor [2]): 1 % of hG-CSF
B11: G-CSF variant K16/34/40R conjugated to SPA-PEG 20000 (ligand)
chain: B2 chain
modifications: conjugated to SPA-PEG 20000

EC50 (% of hG-CSF) conjugated to SPA-PEG 5000 (human G-CSF receptor [3]): 4 % of hG-CSF
B12: G-CSF variant K16/34/40R Q70K Q90K T105K conjugated to SPA-PEG 5000 (ligand)
chain: B2 chain with Q70K, Q90K, T105K
modifications: SPA-PEG 5000 conjugated to the available PEGylation sites

EC50 (% of hG-CSF) conjugated to SPA-PEG 12000 (human G-CSF receptor [2]): 6 % of hG-CSF
B13: G-CSF variant K16/34/40R T105K S159K conjugated to SPA-PEG 12000 (ligand)
chain: B2 chain with T105K, S159K
modifications: conjugated to SPA-PEG 12000
